A short description of the series: label from the status in PepcDB records.
On to “MAKSWCTVLERPATRAARSLAIKRSEKGEMLVSGLPYLSAVDDVTLMLRDGDLMGSFVVEGINAETVDSFHTVELCNAFSRFIAQQRSDVAYYVHRISVETRPTMPPVGGHPFNEEIDRRWQGYLQTVGLRDRVTVVTLVIRPPRKTTKFLSLFGGRDVHSRHEVEARALRLDQMINTCMVGVGEAGPSRLTVSDGRWLGLLRTLIDGSGGSLIPGTKFLPVADLLASSQITFQGPVFECEGTDPARRRFGTIVSVKDYPAETYPGILDRLNLPYNTVVTQSFTPIDPISAQGKIARVRKQMRAAEDAAISLMAQLEEAEDDVASGRVIFGDHHCSVAVFCDSLKELDGAMAYVTRAMQDAGAAIVRENFSSRVVYFAQHPGNFAYRTRPAMISSQNFAQLCAMHGQSKGSPPDKCPWGDAVTIFPTARGETFRFNFHLPGKPGQRTVGHTLVLGQTGSGKTLGTAFLISQAQRLGARTILFDKDNGFEMAVRAMGGCYSAVRMGDETGFNPMRAEADSRGAAWLMDWLAALAENDGGKLNPVQIQALSDAVQANTTADPRLQNLEQFRSQLRATDDDGDLYNRLGRWDETGQFGWLFGGKGLDPLAFDNRLTAFDLTEIFDNDVVRTAWLSYVFRRVERLVEDEHPTLLVLDEAWKLLDNPYFEARLKDWMLTMRKKNVAVVLLTQRVSHIKNSAAGDAILESAVTRLVYTSSFNTAAELAPLHLTPTESAFLQMSNVDNHLVLLKSGSDSVVLDFDLVAIGKGIDVLGGGRGQKAIAGWRDRPDFQMEMLHLEHHHHHH”, for which the protein production entry is “failed”.

On to “MAKVVKLEPISRETTVNTNDNLLSALLDSELHVLKECGGRGMCATCHVYIKEGMESLSPINKREQRTLEVITTANATSRLACQARVLGPGVVVELPSG”, for which the protein production entry was “failed”.

For the sequence “MALAFDEFGRPFIILREQDQKTRLKGIDAQKANISAGKAVARILRSSLGPKGMEKKCFKDLTEMSPYVSFFLLNLISLRSIPMALALNSGLQPIETLSAVKSQQIKRRTFHSTGLIATM”, the protein production result is “failed”.

As for “MALCGRPARQRSSAGQRYLAVAPARCDHWSPPSVRRVPVGRVGFYPAPVINRDAGGRASMTSQRGFWDRMAERYAARPIKDVAAYEAMLADAAGRLSPSDRVLEIGCGTGGTAIRLAPGVAQWTATDLSPEMVRIASAKPAPPNLSFVVADADLSTGEPPYDAVCAFLILHLVDDIRTTLSAIRDWLKPGGLLLSKTYCIGDMNPALRWGVIPVLQRIGWVPPIKSLMSQQLRAAIAEAGFEIEASRTFGSNSHAHYIVARKPA”, the protein production entry is given as “failed”.

Take “MALDNAKTSQKLQSLAELDGKAPSHRNLNVQTWSTAEGAKVLFVEARELPMFDLRLIFAAGSSQDGNAPGVALLTNAMLNEGVAGKDVGAIAQGFEGLGADFGNGAYKDMAVASLRSLSAVDKREPALKLFAEVVGKPTFPADSLARIKNQMLAGFEYQKQNPGKLASLELMKRLYGTHPYAHASDGDAKSIPPITLAQLKAFHAKAYAAGNVVIALVGDLSRSDAEAIAAQVSAALPKGPALAKIEQPAEPKASIGHIEFPSSQTSLMLAQLGIDRDDPDYAAVSLGNQILGGGGFGTRLMSEVREKRGLTYGVYSGFTPMQARGPFMINLQTRAEMSEGTLKLVQDVFAEYLKNGPTQKELDDAKRELAGSFPLSTASNADIVGQLGAMGFYNLPLSYLEDFMRQSQELTVEQVKAAMNKHLNVDKMVIVSAGPTVAQKPLEHHHHHH”: the protein production result is “failed”.

In the case of “MALDRIEAMRAFCRIVELGSFTRAADSLGVASTTLSGQIQVLERLLDIRLLHRSTRKVHPTNEGLAYYQRARKVIEDIDDLEASVSISRAVVKGRVAVEMPTPVGIHLVIPALHGFTERYPHIHLDIGCSERVVGLMQEGIDCAIRGGDIADQDLIARRVGQMRFCLCAAPAYLDAHPAITHPAQLARHRHLGFRFPGTGKRFVATLRKQRDSHPLDHPPHVYFNNGTAVTAGAAAGLGIAALPRAEVRHLLEAGALREILPDWTLTSMPMSVVYPQTHQLSARVQVFVQWVAELFEGDGLWKDA”, the protein production entry is given as “failed”.

With “MALGHRCRRFGTDKITSRPLRRQPQENPMNIKQLITAALIASAAFATQAAPQKPVSAAQTAQHSAVWIDVRSEQEFSEGHLHNAVNIPVDQIVRRIYEAAPDKDTPVNLYCRSGRRAEAALQELKKAGYTNVANHGGYEDLLKKGMK”, the protein production entry is “failed”.

For “MALIVQKFGGTSVGTVERIEQVAEKVKKFREAGDDVVVVVSAMSGETNRLIGLANQIMEQPVPRELDVMVSTGEQVTIALLSMALIKRGVPAVSYTGNQVRILTDSAHTKARILHIDDTHIRADLKAGRVVVVAGFQGVDGNGNITTLGRGGSDTTGVALAAALKADECQIYTDVDGVYTTDPRVVPQARRLDKITFEEMLEMASLGSKVLQIRAVEFAGKYNVPLRVLHSFQEGPGTLITIDDEEESMEQPIISGIAFNRDEAKLTIRGVPDTPGVAFKILGPISAANVEVDMIVQNVAHDNTTDFTFTVHRNDYLNALEILKQTAANIGAREAIGDTNIAKVSIVGVGMRSHAGVASRMFEALAKESINIQMISTSEIKVSVVIEEKYLELAVRALHTAFELDAPARQG”, the protein production result is reported as “failed”.

With “MALKDYALEKEKVKKFLQEFYQDDELGKKQFKYGNQLVRLAHREQVALYVDLDDVAEDDPELVDSICENARRYAKLFADAVQELLPQYKEREVVNKDVLDVYIEHRLMMEQRSRDPGMVRSPQNQYPAELMRRFELYFQGPSSNKPRVIREVRADSVGKLVTVRGIVTRVSEVKPKMVVATYTCDQCGAETYQPIQSPTFMPLIMCPSQECQTNRSGGRLYLQTRGSRFIKFQEMKMQEHSDQVPVGNIPRSITVLVEGENTRIAQPGDHVSVTGIFLPILRTGFRQVVQGLLSETYLEAHRIVKMNKSEDDESGAGELTREELRQIAEEDFYEKLAASIAPEIYG”, the protein production entry is recorded as “failed”.

“MALKLGVIGTGAIGQDHIRRCSKTLVGSQVVAVTDINLEQAANVVRDLGIGAEVYADGHALIAAPDVEAVLVCSWGPSHEEYVLAAIAAGKPVFCEKPLAVTAEGCRHIVEAEIASGRRLVQVGFMRPYDQGYRALKSVIDSGQIGEPLMLHCAHRNPRVGENYKTDMAITDTLIHELNVLRWLLNDDYVSVQVVFPRKSGKALAHMKDPQIVMLETARGTRIDVEVFVNCQYGYDIQCEVVGESGIARLPEPSQVQLRREAKLSNAILMDWKDRFIAAYDVELQDFIDGVKAGTIYGPSAWDGYAAAVAADACVLAQNNGAVVPITLAMRPAFYA”: the protein production result was “failed”.

In the case of “MALKYPSGKEYRGNKPNAARRPAADYANRGMTLEDDLNATNEYYRERGIAVIHKKPTPVQIVRVDYPKRSAAVITEAYFRQASTTDYNGVYRGKYIDFEAKETKNKTAFPLKNFHAHQIRHMEQVVAHGGICFAILRFSLLNETYLLDASHLIAWWNKQEAGGRKSIPKQEIERHGHSIPLGYQPRIDYISVVDNVYFTR”, the protein production entry is “not failed”.

With “MALNNFLTFQLLLLLLRVSSESPWIVAGDVSRIPINFLELAKSPEVFDSMVRIRRKIHENPELGYEEFETSKFIRSELDLIGVKYRFPVAITGIIGYIGTGEPPFVALRADMDALPIQEAVEWEHKSKNPGKMHACGHDGHVAMLLGAAKILQQHRQHLQGTVVLIFQPAEEGLSGAKMMREEGALKNVEAIFGIHLSPRTPFGKAASLAGSFMAGAGAFEAVITGKGGHAAIPQHTIDPVVAASSIVLSLQHLVSRETDPSDSKVVTVTKVNGGNAFNVIPDSITIGGTLRAFTGFTQLQERIKEIITKQAAVHRCNASVNLAPNGNQPMPPTVNNMDLYKKFKKVVRDLLGQEAFVEAVPEMGSEDFSYFAETIPGHFSLLGMQDETQGYASSHSPHYRINEDVLPYGAAIHATMAVQYLKDKASKGSVSGFHDEL”, the protein production result is listed as “not failed”.

Turning to “MALNVAPVRDTKWLTLEVCRQFQRGTCSRSDEECKFAHPPKSCQVENGRVIACFDSLKGRCSRENCKYLHPPTHLKTQLEINGRNNLIQQKTAAAMLAQQMQFMFPGTPLHPVPTFPVGPAIGTNTAISFAPYLAPVTPGVGLVPTEILPTTPVIVPGSPPVTVPGSTATQKLLRTDKLEVCREFQRGNCARGETDCRFAHPADSTMIDTSDNTVTVCMDYIKGRCMREKCKYFHPPAHLQAKIKAAQHQANQAAVAAQAAAAAATVMAFPPGALHPLPKRQALEKSNGTSAVFNPSVLHYQQALTSAQLQQHAAFIPTVPMMHSATSATVSAATTPATSVPFAATATANQIILK”, the protein production result is “not failed”.

Consider “MALPASTPPRAKKRFAWIRTLRWYWWLLLFILLGYGLSHIMHWDDRGLLWLKERFESNEERSASIWLPDYHVEIDAKALPGMEKDEASDLSYNPISKTLFAVMGKNAFLVELTLKGDVLRKIPLVGWSNPEGVAVMNDGLIAITDERQHQLTIVKVTADTTTLNIADFPHYELGTSANKNKGFEGVAWDPRRQQLLLGEERPPALYTWKSDGSNVLKGDKQSLLSRALDMRNLSSLSIDPRTGHMLALSADSHMLLEVDEQGNQVSFMTLLGGMNGLKDTIPRAEGVALDEAGTLYMVSEPNLFYSFRKQ”, for which the protein production result was “failed”.

“MALPESESARTEQALGRLVGSLCVVTAQQGELSSAMLASWVSQATFSPPGLTVAVAKERAIESLLHKNSCFVLNILQEGNHLGLMKHFLKPFAPGGDRFADVATETAENGAPILTESLAYLECRVQQRLECGDHWVLYAVTDRGALLKDGVTAVHHRKSGDHYLEHHHHHH”: the protein production entry was “failed”.

Turning to “MALPRPTSPHARGSNRTPAIMRLVLGACVPGLLTLTWLYGPGTLLNLAWASLVALACEAAMLALRKRPPGVFLKDGSALVTALLLAVALPPYAPWWLTLVATFFALVFGKHLYGGLGQNPFNPAMLGYVVALVSFPLEMTRWPSPDSALGLPDSLREFLGLATRPDAWAHATALDVLKTDRSLTVDELFAGNPAFGHLGSAGSEWVNLAFLLGGLFLLWRRLFTWHAPLGMLAGLFAMSLLFWNGSGSDSHGSPLFHLFSGATMLGAFFIVTDPVSGATSNRGRLVFGLGVGVLTYVIRAWGGYPDGVAFAVLLMNLAAPTIDYYTRPRTYGHRKAERGFKAGD”, the protein production result is on record as “failed”.

Take “MALREMIIDESDDIESYSDQSLCLDKAKELLALIKLPTGLLPLKDMTEVGYNKTKGFVWMRMRSKIEHTFREIGRRVLYDTEITAFVEDRRMRRLTGVKSKELMIWVPVNDIFIKRKILRRSPLLIPPACHEHLKFQHFNVRVDKLKEKRSNQTSLM”: the protein production result is reported as “failed”.

On to “MALRKEDLILIPLVAGVMMGAIDSTIVVLALPTISDDLKAPLSLSIWIILAYLLVAAVSTTQFGRLGDMISRKTIFNSGMAIFTLGSFLCGVSSNIDFLIAFRFVQAAGGSMMQANSGSIIADNFPPNLRGRAYGYTSVGWNSGATLGIVLGGIITTLIGWRYIFYINVPVGIISLYFAIKYIIPGSKKNVKLDVPGVVTLTAALSSIAYAATDFTSHGLETTNETLLSIGFLLLVVFIFLERTNKNALLPFHLFQNRVFNFSIAASFLQSLGYLAVTFIVIMYLQGLRGLTPLDSSLLLVPGYVLGGFTGPIFGKLSDRIGARTPATLGMFLMMIAVLLYMTFNLKTPVYYVIPVSIISGLGSSMFFPANNSAVMASSPAGSYGAASGLLRTMANIGMLGSFVLAITVSTIAIPRYVAFEVFAGVGRLVGGLSASFLTGIHTALEVSFAIIAVGMLFSFVRGKENRSTSTPPRATETTK”, for which the protein production result is recorded as “failed”.

In the case of “MALRNVPFRSEVLGWDPDSLADYFKKLNYKDCEKAVKKYHIDGARFLNLTENDIQKFPKLRVPILSKLSQEINKNEERRSIFTRKPQVPRFPEETESHEEDNGGWSSFEEDDYESPNDDQDGEDDGDYESPNEEEEAPVEDDADYEPPPSNDEEALQNSILPAKPFPNSNSMYIDRPPSGKTPQQPPVPPQRPMAALPPPPAGRNHSPLPPPQTNHEEPSRSRNHKTAKLPAPSIDRSTKPPLDRSLAPFDREPFTLGKKPPFSDKPSIPAGRSLGEHLPKIQKPPLPPTTERHERSSPLPGKKPPVPKHGWGPDRRENDEDDVHQRPLPQPALLPMSSNTFPSRSTKPSPMNPLPSSHMPGAFSESNSSFPQSASLPPYFSQGPSNRPPIRAEGRNFPLPLPNKPRPPSPAEEENSLNEEWYVSYITRPEAEAALRKINQDGTFLVRDSSKKTTTNPYVLMVLYKDKVYNIQIRYQKESQVYLLGTGLRGKEDFLSVSDIIDYFRKMPLLLIDGKNRGSRYQCTLTHAAGYP”, the protein production entry is “not failed”.

Source of the values: a protein production outcome set (Wang et al. 2014).
